What was measured:
Assay in all cases: peptide microarray, 1 µg/mL LY75_A1, anti-human IgG Alexa 647
SCYKVFHA = molecular target: T1, SCYKVFHA
T1 peptide: SCYKVFHA
Procedure: (§1) The chip comprised three panels such that the experiment was performed in triplicate. […] The binding assay was performed under the following conditions:—The microarray comprising the contiguous peptides in triplicate was washed with 1 mL of binding buffer at 4° C. for 20 min. […] The array was again washed with 0.5 mL of washing buffer at 4° C. for 30 min.

PWRRGWHF = molecular target: T2, PWRRGWHF
T2 peptide: PWRRGWHF
Procedure: as §1

RRGWHFYD = molecular target: T3, RRGWHFYD
T3 peptide: RRGWHFYD
Procedure: as §1

YDDREFIY = molecular target: T4, YDDREFIY
T4 peptide: YDDREFIY
Procedure: as §1

DREFIYLR = molecular target: T5, DREFIYLR
T5 peptide: DREFIYLR
Procedure: as §1

EFIYLRPF = molecular target: T6, EFIYLRPF
T6 peptide: EFIYLRPF
Procedure: as §1

[1] = molecular target: T7, LY75 tryptic peptide GWHFYDDR (765-772)
T7 construct: Tryptic peptide of recombinant LY75, eluted from LY75_A1 beads and identified by LC-MS/MS
T7 peptide: GWHFYDDR
Procedure: as §1

DDHFTYSR = molecular target: T8, DDHFTYSR
T8 peptide: DDHFTYSR
Procedure: as §1

DHFTYSRY = molecular target: T9, DHFTYSRY
T9 peptide: DHFTYSRY
Procedure: as §1

HFTYSRYP = molecular target: T10, HFTYSRYP
T10 peptide: HFTYSRYP
Procedure: as §1

FTYSRYPW = molecular target: T11, FTYSRYPW
T11 peptide: FTYSRYPW
Procedure: as §1

YSRYPWHR = molecular target: T12, YSRYPWHR
T12 peptide: YSRYPWHR
Procedure: as §1

SRYPWHRF = molecular target: T13, SRYPWHRF
T13 peptide: SRYPWHRF
Procedure: as §1

RYPWHRFP = molecular target: T14, RYPWHRFP
T14 peptide: RYPWHRFP
Procedure: as §1

YPWHRFPV = molecular target: T15, YPWHRFPV
T15 peptide: YPWHRFPV
Procedure: as §1

WHRFPVTF = molecular target: T16, WHRFPVTF
T16 peptide: WHRFPVTF
Procedure: as §1

HRFPVTFG = molecular target: T17, HRFPVTFG
T17 peptide: HRFPVTFG
Procedure: as §1

YSNFHPLL = molecular target: T18, YSNFHPLL
T18 peptide: YSNFHPLL
Procedure: as §1

VKYLNNLY = molecular target: T19, VKYLNNLY
T19 peptide: VKYLNNLY
Procedure: as §1

YLNNLYKI = molecular target: T20, YLNNLYKI
T20 peptide: YLNNLYKI
Procedure: as §1

LNNLYKII = molecular target: T21, LNNLYKII
T21 peptide: LNNLYKII
Procedure: as §1

NNLYKIIP = molecular target: T22, NNLYKIIP
T22 peptide: NNLYKIIP
Procedure: as §1

NLYKIIPK = molecular target: T23, NLYKIIPK
T23 peptide: NLYKIIPK
Procedure: as §1

LYKIIPKT = molecular target: T24, LYKIIPKT
T24 peptide: LYKIIPKT
Procedure: as §1

YKIIPKTL = molecular target: T25, YKIIPKTL
T25 peptide: YKIIPKTL
Procedure: as §1

KIIPKTLT = molecular target: T26, KIIPKTLT
T26 peptide: KIIPKTLT
Procedure: as §1

IIPKTLTW = molecular target: T27, IIPKTLTW
T27 peptide: IIPKTLTW
Procedure: as §1

IPKTLTWH = molecular target: T28, IPKTLTWH
T28 peptide: IPKTLTWH
Procedure: as §1

PKTLTWHS = molecular target: T29, PKTLTWHS
T29 peptide: PKTLTWHS
Procedure: as §1

KTLTWHSA = molecular target: T30, KTLTWHSA
T30 peptide: KTLTWHSA
Procedure: as §1

TLTWHSAK = molecular target: T31, TLTWHSAK
T31 peptide: TLTWHSAK
Procedure: as §1

KKLSRLTY = molecular target: T32, KKLSRLTY
T32 peptide: KKLSRLTY
Procedure: as §1

KLSRLTYS = molecular target: T33, KLSRLTYS
T33 peptide: KLSRLTYS
Procedure: as §1

LSRLTYSS = molecular target: T34, LSRLTYSS
T34 peptide: LSRLTYSS
Procedure: as §1

B1: LY75_A1 monoclonal antibody (antibody, V domains shown)
VH: EVQLVESGGGLVKPGGSLRLSCAASGFTYSNAWMSWVRQAPGKGLEWVGRIKSKTDGGTTDYAAPVQGRFTISRDDSKNTLYLQMNSLKTEDTAVYYCTIFGVVSFDYWGQGTLVTVSS
VL: DVQMTQSPSSLSASVGDRVTITCRASQSISDYLSWYQQRPGKAPNLLIYAASNLKTGVPSRFSGSGSGTDFTLTISTLQPEDFATYYCQQSYRSPWTFGQGTKVEIKR
notes: also called LY75A1 antibody; LY75_A1 antibody
binding result (SCYKVFHA): binds
binding result (PWRRGWHF): binds
binding result (RRGWHFYD): binds
binding result (YDDREFIY): binds
binding result (DREFIYLR): binds
binding result (EFIYLRPF): binds
binding result [1]: binds
binding result (DDHFTYSR): binds
binding result (DHFTYSRY): binds
binding result (HFTYSRYP): binds
binding result (FTYSRYPW): no binding (tested: 1 µg/mL)
binding result (YSRYPWHR): binds
binding result (SRYPWHRF): binds
binding result (RYPWHRFP): binds
binding result (YPWHRFPV): binds
binding result (WHRFPVTF): binds
binding result (HRFPVTFG): binds
binding result (YSNFHPLL): binds
binding result (VKYLNNLY): binds
binding result (YLNNLYKI): binds
binding result (LNNLYKII): binds
binding result (NNLYKIIP): no binding (tested: 1 µg/mL)
binding result (NLYKIIPK): no binding (tested: 1 µg/mL)
binding result (LYKIIPKT): no binding (tested: 1 µg/mL)
binding result (YKIIPKTL): no binding (tested: 1 µg/mL)
binding result (KIIPKTLT): no binding (tested: 1 µg/mL)
binding result (IIPKTLTW): no binding (tested: 1 µg/mL)
binding result (IPKTLTWH): no binding (tested: 1 µg/mL)
binding result (PKTLTWHS): no binding (tested: 1 µg/mL)
binding result (KTLTWHSA): no binding (tested: 1 µg/mL)
binding result (TLTWHSAK): no binding (tested: 1 µg/mL)
binding result (KKLSRLTY): binds
binding result (KLSRLTYS): binds
binding result (LSRLTYSS): binds

From patent US20160257760A1 (OXFORD BIOTHERAPEUTICS, published 2016)
